The subject of this data set is MS2 coat protein. The experiment in a line: apparent KD of MS2 coat protein; designed switch direction (-1 OFF switch, 1 ON switch): 1; higher = weaker reporter binding. In short, it runs like this: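 RNA switches sharing common flanks were transcribed by stalled E. coli RNA polymerase on Illumina chips. A doubling series of SNAP-549-labelled MS2 coat protein, from 0.7 or 1.5 nM to 3 µM, was applied in Tris-HCl pH 7.5 buffer with KCl, MgCl2, BSA, DTT, tRNA and Tween-20. Each step lasted 0.8–1.5 h at the bottom of the series and 10–20 min at the top. Normalised cluster fluorescence was curve-fitted, giving apparent KD as the per-design median over clusters.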

[1] abbreviates: input ligand: microRNA oligo, concentration not stated.
Where [2] appears, read: Eterna round: R95, input ligand: FMN 200 uM.
Where [3] appears, read: Eterna round: R95, input ligand: microRNA oligo, concentration not stated.
The mark [4] stands for this setting: Eterna round: R95, input ligand: none.

In the case of “GCGAGCGUACUUGCUACAUGAGGAUCACCCAUGUUUGAUGGACAGGAUAUGGUACCGUUUCGGUACCAGAAGGGUUCACAUGUA [JL SSNG3 3.79] (Eterna round: R96, puzzle: Same State NG 3)”, the “apparent KD of MS2 coat protein” value (input ligand: FMN 200 uM) was 71.4 nM, the “apparent KD of MS2 coat protein” value under setting [1] was 268 nM and the “apparent KD of MS2 coat protein” value (input ligand: none) worked out at 214 nM.

As to “AGUCCAGCCAGAGCUGGACAAAAGCAUGUACAUGAGGAUCACCCAUGUUCAUGUACAAGCUUUUUGCAAGUCAAAAU [Mat - hsa-mir-208a - Mod of JL - 83] (puzzle: Sensor for hsa-mir-208a)”, the “apparent KD of MS2 coat protein” value was found to be 614 nM under setting [2], 16.8 nM under setting [3] and 1110 nM under setting [4].

For “AGCCUGCCGCAAGGAUAUGAAGCUUUCGCUCCGUCAGAAGGUGCACAUGAGGAUCACCCAUGUAUGCAGGCCAAGAAAUAAAAC [Inbilerate] (Eterna round: R96, puzzle: Same State NG 1)”, the “apparent KD of MS2 coat protein” value (input ligand: FMN 200 uM) stood at 20.1 nM, the “apparent KD of MS2 coat protein” value under setting [1] was 33.9 nM and the “apparent KD of MS2 coat protein” value (input ligand: none) came to 52.9 nM.

On to “UAUGAAUUGCAAGGAUAUUGAUAACAUGAGGAUCACCCAUGUAAUUGUUCGAGUUAGAUUAGUUACAAGAAGGUGCUAUUGUUU [JR_SSNG2_Sub038] (Eterna round: R96, puzzle: Same State NG 2)”, for which the “apparent KD of MS2 coat protein” value by setting is: (input ligand: FMN 200 uM) 350 nM; under setting [1], 459 nM; (input ligand: none) 337 nM.

On to “GGUGAGAGAGUCUAGGAUAUGAAAGGAGAGACAUGAGGAUCACCCAUGUAAGAGAGAGAGGAGAGUUAGAAGGAGAAGAGAGUGG [Altered State 2-23 - Jieux - Same State 2] (puzzle: Same State 2)”, for which the “apparent KD of MS2 coat protein” value is, setting by setting: under setting [2], 26.8 nM; under setting [3], 32 nM; under setting [4], 47 nM.

Consider “UUGAAGAAUUAAGGAUAUUGAAUACAUAUGUUUAACAUGAGGAUCACCCAUGUGGGUUGCGGUAUCGAGAAGGUAAAAUAAUAG [Mat - Same State NG 2 - JL mod - D4] (Eterna round: R96, puzzle: Same State NG 2)”, for which the “apparent KD of MS2 coat protein” value (input ligand: FMN 200 uM) is 118 nM, the “apparent KD of MS2 coat protein” value under setting [1] was found to be 91.8 nM and the “apparent KD of MS2 coat protein” value (input ligand: none) turned out to be 110 nM.

With “CCAACGUACAAUUUAGAUCUACAUGAGGAUCACCCAUGUACGGAGGAUAUCAGCUCGAUUAGAGCUGAGAAGGCCGAAUUAAUU [SSNG3/2-A2] (Eterna round: R96, puzzle: Same State NG 3)”, the “apparent KD of MS2 coat protein” value reads like this: (input ligand: FMN 200 uM) 65.7 nM; under setting [1], 119 nM; (input ligand: none) 430 nM.

For “GAGUAGUUGGAAGGAUAUCGAUUGUUAUAGAAUCGAGAAGGUCCUAACAUGAGGAUCACCCAUGUAGGACUAUUCCUGUGUAUC [Parity 76 - Jieux - Same State NG 1] (Eterna round: R96, puzzle: Same State NG 1)”, the “apparent KD of MS2 coat protein” value under setting [1] was determined as 8.12 nM.

Take “GCGAGCGUACUUGCAGACAUGAGGAUCACCCAUGUAACUGGACAGGAUAUGGUACCGUUUCGGUACCAGAAGGGUUCAUAUGUC [JL SSNG3 3.53] (Eterna round: R96, puzzle: Same State NG 3)”: the “apparent KD of MS2 coat protein” value was 67.6 nM (input ligand: FMN 200 uM), 50.8 nM under setting [1] and 79.4 nM (input ligand: none).

With “AAGAUGCUCGUAGGAUAUUGGAAAGGAAGUGUACAAGAAGGACGGUGUCACAUGAGGAUCACCCAUGUUACAGUCUAAGGACUA [PowerStrip SSNG 1.16] (Eterna round: R96, puzzle: Same State NG 1)”, the “apparent KD of MS2 coat protein” value runs as follows: (input ligand: FMN 200 uM) 21.5 nM; under setting [1], 13.2 nM; (input ligand: none) 20.3 nM.

Consider “UUGAUGUACUGAGGAUAUCGUGUCGUCUGAUUUUACAUGAGGAUCACCCAUGUGGGUUGUGGUAUCGAGAAGGCAGUUUUCUUA [JR_SSNG2_Sub029] (Eterna round: R96, puzzle: Same State NG 2)”, for which the “apparent KD of MS2 coat protein” value reads like this: (input ligand: FMN 200 uM) 50.4 nM; under setting [1], 84.3 nM; (input ligand: none) 158 nM.

Take “UGCUUCGUGUAAGGAUAUGCAGCCGUUUCGGCUGCAGAAGGUACUAUAAUACAUGAGGAUCACCCAUGUCUCUCGCUUUGCGGG [salish99_SSng1_r04_304] (Eterna round: R96, puzzle: Same State NG 1)”: the “apparent KD of MS2 coat protein” value under setting [1] turned out to be 43.4 nM.

Regarding “GGGCCAGCUUGUGCUGGGCCUUCGCAUGCACAUGAGGAUCACCCAUGUCGUGUACAUGCUUGGUGCCCGUCUUUCCC [Photon Torp-14] (puzzle: Sensor for hsa-mir-208a)”, the “apparent KD of MS2 coat protein” value was 84.5 nM under setting [2], 20.9 nM under setting [3] and 85.8 nM under setting [4].

For the sequence “AGUCCAGCCUGAGCUGGACAAAAGCAUGUACAUGAGGAUCACCCAUGUCAUGUACAGGCUUUUUGCUCGUCUUAAUA [Zipper 49 - 7] (puzzle: Sensor for hsa-mir-208a)”, the “apparent KD of MS2 coat protein” value reads like this: under setting [2], 433 nM; under setting [3], 16.8 nM; under setting [4], 583 nM.

With “GUUUGACAUGAGGAUCACCCAUGUCAUACGGACACAGGAUAUCGUGGCCUGAAGCCGUCAUGAGAAGGGUGACCAA [Ceaza] (puzzle: Same State 1)”, the “apparent KD of MS2 coat protein” value runs as follows: under setting [2], 33.8 nM; under setting [3], 14.3 nM; under setting [4], 12.5 nM.

Take “GUCCAACAUGAGGAUCACCCAUGUCGGGCGUGCACAGGAUAUCGCGCCGGGAAAGACCAGCGAGAAGGGUGAUCGA [Leriqu] (puzzle: Same State 1)”: the “apparent KD of MS2 coat protein” value by setting is: under setting [2], 139 nM; under setting [3], 51.4 nM; under setting [4], 57.5 nM.

The values above are taken from the supplement of paper PMC9170038.
